The record followed here is paper doi:10.1101/2023.06.05.543739.

A word on the Kd: it is the concentration at which binding is half-saturated.

Common to all, as to assay: ITC
One experiment deals with PER2 1132-1252 (UniProt O54943).
A further experiment addresses PER1 1013-1291 (UniProt O35973).
The target in experiment [1] is hRbBP5 (Isoform 2) (human).

Sequence of UniProt O54943 (O54943 1132-1252): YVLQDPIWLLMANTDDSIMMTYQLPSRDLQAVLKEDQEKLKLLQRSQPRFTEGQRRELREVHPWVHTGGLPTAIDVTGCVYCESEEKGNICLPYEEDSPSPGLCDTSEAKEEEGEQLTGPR
Sequence of UniProt O35973 (O35973 1013-1291): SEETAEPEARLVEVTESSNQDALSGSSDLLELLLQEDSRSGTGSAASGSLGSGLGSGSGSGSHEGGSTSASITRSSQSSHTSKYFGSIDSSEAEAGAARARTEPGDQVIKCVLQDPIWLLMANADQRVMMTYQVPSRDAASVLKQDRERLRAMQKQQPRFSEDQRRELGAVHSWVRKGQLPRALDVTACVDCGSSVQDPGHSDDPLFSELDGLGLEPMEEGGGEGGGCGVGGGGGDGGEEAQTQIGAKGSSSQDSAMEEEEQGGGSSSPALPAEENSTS

Turning to “WDR5 23-334 (from UniProt P61964 23-334) (domain or fragment; other documents disagree on this pair)”, the dissociation constant (Kd) with PER2 1132-1252 amounted to 50 µM. In the experiment with PER1 1013-1291, “WDR5 23-334 N225A (from UniProt P61964 23-334) (domain or fragment; other documents disagree on this pair)” came in with an equilibrium dissociation constant (Kd) of 7 µM. For the substance “WDR5 23-334 N225A (from UniProt P61964 23-334) (domain or fragment)”, the dissociation constant (Kd) in experiment [1] is 71 µM.
